Data on 14 molecules can be found in patent US12129308 (Merck KGaA, dated 2024).

Where two headings read alike, the source gives them in different places.

Assay [1] deals with T1, activated human MMP13 (human, UniProt P45452 104-471). Kind of assay: cell-based or functional assay.
For assay [2], the target named is T2, activated rat MMP13 (rat, UniProt P23097 99-466). Kind of assay: cell-based or functional assay.
In assay [3] the target is T1, activated human MMP13. The assay can be described thus: cell-based or functional assay. This is another data set of the same source.
Assay [4] concerns the target T3, Aggrecan.
T3 construct: also called CAP
The assay can be described thus: competition ELISA (CAP) on Aggrecan; competitor not stated. Background: In an ELISA, binding on a coated surface is turned into a signal by an enzyme label.

Assay [5] deals with T1, activated human MMP13. The assay can be described thus: cell-based or functional assay. The source holds these as a separate data set.
Assay [6] deals with T2, activated rat MMP13. The assay can be described thus: cell-based or functional assay. The source holds these as a separate data set.
Assay [7] concerns the target activated dog MMP13 (dog, UniProt P45452 104-471 (human entry)). The assay can be described thus: cell-based or functional assay.
The target of assay [8] is bovine MMP13 (bovine, UniProt O77656 104-471). Kind of assay: cell-based or functional assay.
The target of assay [9] is cynomolgus MMP13 (cynomolgus, UniProt A0A2K5U988 104-471). The assay can be described thus: cell-based or functional assay.
Assay [10] has as its target T4, activated MMP13 (species not stated) (Homo sapiens (Human), UniProt P45452 104-471, Biotinylated in the TIMP-2 competition ELISA (sites not given). Activated form: pro-peptide removed.).
T4 construct: campaign 4 ELISA; Probably human
Kind of assay: TIMP-2 competition ELISA; Nanobody pre-incubated with 1.26 nM activated MMP13-biotin, binding to captured TIMP-2.

B1: 62C02-40E09 clone 72 (bispecific antibody)
chain: EVQLVESGGALVRPGGSLRLSCAASGFAFSAAYMSWVRQAPGRGLEWVSSISDDGSKTYYADSVKGRFTISRDNAKNTVYLQMNNLKPDDTAVYYCNTGYGATTTRPGRYWGQGTLVTVSSGGGGSGGGGSGGGGSGGGGSGGGGSGGGGSGGGGSEVQLVESGGGSVQAGGSLRLSCAASGSTFSRYSMNWYRQAPGKQREFVAGISVGRITNYAVSVRGRFTISRDNAEGTGYLQMNSLKPEDTAVYYCNAGGLQGYWGLGTLVTVSS
For B1, in assay [1], the “IC50, human fluorogenic collagen assay” value stood at 2.4 nM. Besides, the “IC50, (adapted) rat fluorogenic peptide assay” value in assay [2] was 0.1 nM.

B2: C010100683 (bispecific antibody)
chain: EVQLVESGGGLVQPGGSLRLSCAASGFAFSAAYMSWVRQAPGKGLEWVSSISDDGSKTYYADSVKGRFTISRDNSKNTVYLQMNSLRPEDTAVYYCNTGYGATTTRPGRYWGQGTLVTVSSGGGGSGGGGSGGGGSGGGGSGGGGSGGGGSGGGGSEVQLVESGGGLVQPGGSLRLSCAASGSTFIINVVRWYRRAPGKQRELVATISSGGNANYVDSVRGRFTISRDNSKNTVYLQMNSLRPEDTAVYYCNVPTTHYGGVYYGPYWGQGTLVTVSSGGGGSGGGGSGGGGSGGGGSGGGGSGGGGSGGGGSEVQLVESGGGLVQPGGSLRLSCAASGSTFIINVVRWYRRAPGKQRELVATISSGGNANYVDSVRGRFTISRDNSKNTVYLQMNSLRPEDTAVYYCNVPTTHYGGVYYGPYWGQGTLVTVSS
notes: MMP13-Aggrecan bispecific Nanobody construct; also called 62C02SO-114F08SO-114F08SO
Take B2: the “potency, human fluorogenic peptide assay” value in assay [3] was 0.953 nM. The IC50 in [4] is 0.23 nM.

B3: 40E09-516G08 clone 70 (bispecific antibody)
chain: EVQLVESGGGSVQAGGSLRLSCAASGSTFSRYSMNWYRQAPGKQREFVAGISVGRITNYAVSVRGRFTISRDNAEGTGYLQMNSLKPEDTAVYYCNAGGLQGYWGLGTLVTVSSGGGGSGGGGSGGGGSGGGGSGGGGSGGGGSGGGGSEVQLVESGGGLVQPGGSLRLSCAGSGSIFRINVMAWYRQAPGKQRELVAAITSGGTTNYADSVKGRFTISRDNSKNTVYLQMNSLRPEDTAVYYCYADIGWPYVLDYDFWGQGTLVTVSS
Take B3: the “IC50, human fluorogenic collagen assay” value in assay [1] was 2.9 nM. Moreover, the “IC50, (adapted) rat fluorogenic peptide assay” value in assay [2] worked out at 0.12 nM.

B4: 516G08-40E09 clone 76 (bispecific antibody)
chain: EVQLVESGGGLVQPGGSLRLSCAGSGSIFRINVMAWYRQAPGKQRELVAAITSGGTTNYADSVKGRFTISRDNSKNTVYLQMNSLRPEDTAVYYCYADIGWPYVLDYDFWGQGTLVTVSSGGGGSGGGGSGGGGSGGGGSGGGGSGGGGSGGGGSEVQLVESGGGSVQAGGSLRLSCAASGSTFSRYSMNWYRQAPGKQREFVAGISVGRITNYAVSVRGRFTISRDNAEGTGYLQMNSLKPEDTAVYYCNAGGLQGYWGLGTLVTVSS
Take B4: the “IC50, human fluorogenic collagen assay” value in [1] turned out to be 3.55 nM. For the same molecule, the “IC50, (adapted) rat fluorogenic peptide assay” value in assay [2] stood at 0.16 nM.

B5: 40E09-62C02 clone 69 (bispecific antibody)
chain: EVQLVESGGGSVQAGGSLRLSCAASGSTFSRYSMNWYRQAPGKQREFVAGISVGRITNYAVSVRGRFTISRDNAEGTGYLQMNSLKPEDTAVYYCNAGGLQGYWGLGTLVTVSSGGGGSGGGGSGGGGSGGGGSGGGGSGGGGSGGGGSEVQLVESGGALVRPGGSLRLSCAASGFAFSAAYMSWVRQAPGRGLEWVSSISDDGSKTYYADSVKGRFTISRDNAKNTVYLQMNNLKPDDTAVYYCNTGYGATTTRPGRYWGQGTLVTVSS
For B5, in assay [2], the “IC50, (adapted) rat fluorogenic peptide assay” value amounted to 1.12 nM.

B6: C0101PMP519E04 (VHH)
VHH: DVQLVESGGGLVQPGGSLRLSCVASGPTFSDYAMGWFRQAPGKEREFVAAISWSGGSTYYADSVKGRFTISRDNSKNTVYLQMNSLRPEDTAVYYCTAARGGGYRASGGPLSEYNYWGQGTLVTVSS
notes: Profile 2 Nanobody
In the case of B6, in assay [5], the “IC50, human fluorogenic collagen assay” value is 24.8 nM and the “IC50, human fluorogenic peptide assay” value is 9.5 nM. Besides, in assay [6], the “IC50, rat fluorogenic peptide assay” value was 3 nM. The “IC50, dog fluorogenic peptide assay” value in assay [7] was determined as 7 nM. Further, in assay [8], the “IC50, bovine fluorogenic peptide assay” value worked out at 17.1 nM. In addition, in [9], the “IC50, cyno fluorogenic peptide assay” value turned out to be 7.2 nM. In assay [10], this molecule had an IC50 of 5.5 nM.

B7: C0101PMP529C12 (VHH)
VHH: DVQLVESGGGLVQPGGSLRLSCVASGSIFSINAMGWYRQAPGKQRELVAAISSGGSTYYADSVKGRFTISRDNSKNTVYLQMNSLRPEDTAVYYCNAAVDASRGLPYELYYYWGQGTLVTVSS
notes: Profile 2 Nanobody; also called C0101529C12
As for B7, in assay [5], the “IC50, human fluorogenic collagen assay” value is 4.9 nM and the “IC50, human fluorogenic peptide assay” value came out at 1.2 nM. Further, the “IC50, rat fluorogenic peptide assay” value in assay [6] was found to be 0.2 nM. Further, in [7], the “IC50, dog fluorogenic peptide assay” value stood at 0.2 nM. Also, in assay [8], the “IC50, bovine fluorogenic peptide assay” value was 1.2 nM. Also, the “IC50, cyno fluorogenic peptide assay” value in assay [9] came to 0.7 nM. In assay [10], this molecule returned a concentration for half-maximal inhibition (IC50) of 0.4 nM.

B8: C0101PMP520B06 (VHH)
VHH: DVQLVESGGGLVQPGGSLRLSCAASGRTFSSYAMGWFRQAPGKEREFVAAISWGGGSTYYSDSVKGRFTISRDNSKNTVYLQMNSLRPEDTAVYYCTAALGSTGSGSTPVPEYRYWGQGTLVTVSS
notes: Profile 2 Nanobody
Take B8: in [5], the “IC50, human fluorogenic collagen assay” value worked out at 27.5 nM and the “IC50, human fluorogenic peptide assay” value is 13.4 nM. The “IC50, rat fluorogenic peptide assay” value in [6] is 7.8 nM. Moreover, the “IC50, dog fluorogenic peptide assay” value in assay [7] is 17.3 nM. For the same molecule, in [8], the “IC50, bovine fluorogenic peptide assay” value was 27.7 nM. Also, the “IC50, cyno fluorogenic peptide assay” value in [9] turned out to be 9.5 nM. Moreover, in assay [10], the IC50 came out at 9.3 nM.

B9: C0101PMP062C02 (VHH)
VHH: EVQLVESGGALVRPGGSLRLSCAASGFAFSAAYMSWVRQAPGRGLEWVSSISDDGSKTYYADSVKGRFTISRDNAKNTVYLQMNNLKPDDTAVYYCNTGYGATTTRPGRYWGQGTQVTVSS
notes: Profile 2 Nanobody; also called C0101062C02
For the molecule B9, in [5], the “IC50, human collagenolytic assay” value was found to be 1.4 nM; the “IC50, human fluorogenic collagen assay” value was found to be 8.3 nM; the “IC50, human fluorogenic peptide assay” value was found to be 1.4 nM. Moreover, the “IC50, rat fluorogenic peptide assay” value in assay [6] stood at 1.1 nM. In addition, the “IC50, dog fluorogenic peptide assay” value in assay [7] turned out to be 1 nM. Further, the “IC50, bovine fluorogenic peptide assay” value in [8] is 3.1 nM. Moreover, the “IC50, cyno fluorogenic peptide assay” value in assay [9] turned out to be 1.4 nM. The “IC50, human fluorogenic collagen assay” value in [1] worked out at 8.32 nM. The “IC50, (adapted) rat fluorogenic peptide assay” value in assay [2] amounted to 2.88 nM. The IC50 in [10] was determined as 0.9 nM.

B10: C0101PMP516G08 (VHH)
VHH: DVQLVESGGGLVQPGGSLRLSCAGSGSIFRINVMAWYRQAPGKQRELVAAITSGGTTNYADSVKGRFTISRDNSKNTVYLQMNSLRPEDTAVYYCYADIGWPYVLDYDFWGQGTLVTVSS
notes: Profile 2 Nanobody; also called C0101516G08
B10: in assay [5], the “IC50, human collagenolytic assay” value amounted to 0.9 nM; the “IC50, human fluorogenic collagen assay” value was 3.8 nM; the “IC50, human fluorogenic peptide assay” value stood at 0.8 nM. Further, the “IC50, rat fluorogenic peptide assay” value in assay [6] is 5.2 nM. Also, the “IC50, dog fluorogenic peptide assay” value in assay [7] turned out to be 4.4 nM. Further, the “IC50, bovine fluorogenic peptide assay” value in assay [8] was 1.5 nM. Moreover, the “IC50, cyno fluorogenic peptide assay” value in [9] stood at 0.4 nM. Besides, in assay [1], the “IC50, human fluorogenic collagen assay” value was 3.78 nM. Moreover, the “IC50, (adapted) rat fluorogenic peptide assay” value in [2] is 4.98 nM. In assay [10], this molecule had an IC50 of 0.5 nM.

B11: C0101PMP529G11 (VHH)
VHH: DVQLVESGGGLVQPGGSLRLSCAASGSIFRINAMGWYRQAPGKQRELVAAIISGGTTYYADSVKGRFTISRDNSKNTVYLQMNSLRPEDTAVYYCYADIGWPYVLDYDFWGQGTLVTVSS
notes: Profile 2 Nanobody
Consider B11, for which, in assay [5], the “IC50, human fluorogenic collagen assay” value was 17.9 nM and the “IC50, human fluorogenic peptide assay” value is 10.3 nM. Further, in assay [6], the “IC50, rat fluorogenic peptide assay” value was determined as 80.6 nM. The “IC50, dog fluorogenic peptide assay” value in assay [7] amounted to 39.1 nM. Besides, in [8], the “IC50, bovine fluorogenic peptide assay” value was found to be 20.1 nM. In addition, the “IC50, cyno fluorogenic peptide assay” value in assay [9] is 7.1 nM. In assay [10], the IC50 was found to be 7.9 nM.

B12: 40E09-517A01 clone 71 (bispecific antibody)
chain: EVQLVESGGGSVQAGGSLRLSCAASGSTFSRYSMNWYRQAPGKQREFVAGISVGRITNYAVSVRGRFTISRDNAEGTGYLQMNSLKPEDTAVYYCNAGGLQGYWGLGTLVTVSSGGGGSGGGGSGGGGSGGGGSGGGGSGGGGSGGGGSEVQLVESGGGLVQPGGSLRLSCAASGRTFSSYAMGWFRQAPGKEREFVAAISWSGGSTYYADSVKGRFTISRDNSKNTVYLQMNSLRPEDTAVYYCTAALAVYGPNRYRYGPVGEYNYWGQGTLVTVSS
In the case of B12, the “IC50, human fluorogenic collagen assay” value in [1] came to 6.5 nM. In addition, the “IC50, (adapted) rat fluorogenic peptide assay” value in assay [2] was 0.11 nM.

B13: C0101PMP521F02 (VHH)
VHH: DVQLVESGGGLVQPGGSLRLSCVASGLTFSSYAMGWFRQAPGKEREFVAAISWSGGRTYYADSVKGRFTISRDNSKNTVYLQMNSLRPEDTAVYYCTAARGPGSVGPSEEYNYWGQGTLVTVSS
notes: Profile 2 Nanobody
In the case of B13, in assay [5], the “IC50, human fluorogenic collagen assay” value is 20.7 nM and the “IC50, human fluorogenic peptide assay” value amounted to 7.2 nM. Also, the “IC50, rat fluorogenic peptide assay” value in assay [6] is 2.1 nM. Also, in assay [7], the “IC50, dog fluorogenic peptide assay” value is 5.5 nM. The “IC50, bovine fluorogenic peptide assay” value in [8] was 16.1 nM. For the same molecule, in [9], the “IC50, cyno fluorogenic peptide assay” value is 7 nM. The molecule further had an IC50 in [10] of 8.5 nM.

B14: 517A01-40E09 clone 80 (bispecific antibody)
chain: EVQLVESGGGLVQPGGSLRLSCAASGRTFSSYAMGWFRQAPGKEREFVAAISWSGGSTYYADSVKGRFTISRDNSKNTVYLQMNSLRPEDTAVYYCTAALAVYGPNRYRYGPVGEYNYWGQGTLVTVSSGGGGSGGGGSGGGGSGGGGSGGGGSGGGGSGGGGSEVQLVESGGGSVQAGGSLRLSCAASGSTFSRYSMNWYRQAPGKQREFVAGISVGRITNYAVSVRGRFTISRDNAEGTGYLQMNSLKPEDTAVYYCNAGGLQGYWGLGTLVTVSS
As for B14, the “IC50, human fluorogenic collagen assay” value in assay [1] turned out to be 4.06 nM. Besides, the “IC50, (adapted) rat fluorogenic peptide assay” value in assay [2] amounted to 0.13 nM.

The IC50 is the concentration at which inhibition is half-maximal. A low value points to inhibition by little substance.
